Laboratory results reported in patent publication US20200369781A1 (published 2020).
Changes are numbered by the printed parent chain.

Legend:
soluble human IL-6R [1] = molecular target: T1, soluble human IL-6R (human, UniProt P08887 20-357); assay: BLI (Octet), in the same way as in Example 3
T1 construct: 152, 4958-4968 (1994); also called hsIL-6R; recombinant human IL-6R
T1 sequence: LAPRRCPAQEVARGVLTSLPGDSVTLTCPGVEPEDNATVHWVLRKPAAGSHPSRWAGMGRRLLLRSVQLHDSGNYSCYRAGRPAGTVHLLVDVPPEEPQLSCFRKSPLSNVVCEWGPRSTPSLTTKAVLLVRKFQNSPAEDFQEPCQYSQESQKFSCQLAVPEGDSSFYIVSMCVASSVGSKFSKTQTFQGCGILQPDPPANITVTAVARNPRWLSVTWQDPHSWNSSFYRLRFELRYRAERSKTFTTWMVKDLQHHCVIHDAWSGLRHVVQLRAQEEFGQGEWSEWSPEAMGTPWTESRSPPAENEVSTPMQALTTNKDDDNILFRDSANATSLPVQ

soluble human IL-6R [2] = molecular target: T1, soluble human IL-6R; assay: BLI (Octet), in the same way as in Example 3, 30 C or 25 C
soluble human IL-6R [3] = molecular target: T1, soluble human IL-6R; assay: BLI (Octet HTX), molecule captured on Protein A biosensor, hsIL-6R as analyte, 30 C
Method: The hsIL-6R binding evaluation of each molecule was conducted using Octet HTX (Pall ForteBio Corp.). Specifically, each molecule was allowed to bind to Biosensor/Protein A (ProA) (Pall ForteBio Corp., 18-5013), and hsIL-6R was allowed to act thereon, followed by binding evaluation at 30° C.

B1: 20A11-G1m/VK2-28-k0MT (antibody, human IgG1, kappa, V domains shown)
VH: EVQLVESGGGLVQPGGSLRLSCAASGSVFKINVMAWYRQAPGKGRELVAGIISGGSTSYADSVKGRFTISRDNAKNTLYLQMNSLRPEDTAVYYCAFITTESDYDLGRRYWGQGTLVTVSS
VL: not shown
notes: IgG antibody-like molecule with VHH 20A11 in place of VH
- binding result (soluble human IL-6R [1]): binds

B2: 20A11hu-G1m/VK2-28-k0MT (antibody, human IgG1, kappa, V domains shown)
VH: B1 VH with Y37V, R45L, L47W
VL: not shown
notes: IgG antibody-like molecule with VHH 20A11hu in place of VH
- binding result (soluble human IL-6R [2]): no binding

B3: IL6R90-G1m/VK2-28-k0MT (antibody, human IgG1, kappa, V domains shown)
VH: EVQLVESGGGLVQPGGSLRLSCAASGFTFDDYGMSWVRQAPGKALEWVSAISWNGNNTYYTESMKGRFTISRDNAKNTLYLQMNSLRPEDTAVYYCVKGSTAIVGVPPTYPDEYDYWGQGTLVTVSS
VL: not shown
notes: IgG antibody-like molecule with VHH IL6R90 in place of VH
- binding result (soluble human IL-6R [3]): no binding
